Source: PMC9482650, “Quantitative fragmentomics allow affinity mapping of interactomes” (Nature Communications, 2022)

B1: GUCY1A2, P33402 (peptide)
chain: GTMFLRETSL
B2: SEMA4F, O95754 (peptide)
chain: PLATCDETSI
B3: SLC15A2, Q16348 (peptide)
chain: IKLETKKTKL
B4: PRLHR, P49683 (peptide)
chain: GQNMTVSVVI

What follows are binders tested against Inadl_4, Q8NI35 (assay: holdup assay). Conditions: plain residues with an end cap or a label only (N-terminal biotin on a linker: ado-ado).
Set-up: key: below the threshold = too weak to quantify, mostly under pKd 3.1 to 4

Chain of Inadl_4, Q8NI35 (Q8NI35 547-651): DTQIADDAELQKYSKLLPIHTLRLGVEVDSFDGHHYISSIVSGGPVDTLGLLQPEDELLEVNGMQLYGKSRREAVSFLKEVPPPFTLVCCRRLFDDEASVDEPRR

Row | pKd | Binder
1 | below the threshold | B1
2 | below the threshold | B2
3 | below the threshold | B3
4 | below the threshold | B4

What follows are binders tested against HTRA2, O43464 (assay: holdup assay). Conditions: plain residues with an end cap or a label only (N-terminal biotin on a linker: ado-ado).
Chain of HTRA2, O43464 (O43464 355-458): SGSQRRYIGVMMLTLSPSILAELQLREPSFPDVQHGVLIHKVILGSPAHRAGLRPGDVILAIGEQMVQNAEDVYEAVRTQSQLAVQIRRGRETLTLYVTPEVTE
Set-up: key: below the threshold = too weak to quantify, mostly under pKd 3.1 to 4

Row | pKd | Binder
5 | below the threshold | B1
6 | below the threshold | B2
7 | 3.52 | B3
8 | below the threshold | B4

What follows are binders tested against Inadl_2, Q8NI35 (assay: holdup assay). Conditions: plain residues with an end cap or a label only (N-terminal biotin on a linker: ado-ado).
Chain of Inadl_2, Q8NI35 (Q8NI35 238-335): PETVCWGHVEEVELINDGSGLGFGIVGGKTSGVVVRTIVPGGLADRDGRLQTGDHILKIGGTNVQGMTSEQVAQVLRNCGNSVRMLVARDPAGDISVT
Set-up: key: below the threshold = too weak to quantify, mostly under pKd 3.1 to 4

Row | pKd | Binder
9 | below the threshold | B1
10 | below the threshold | B2
11 | below the threshold | B3
12 | below the threshold | B4

Each binder was assayed against FRMPD2_3, Q68DX3 (assay: holdup assay). Conditions: plain residues with an end cap or a label only (N-terminal biotin on a linker: ado-ado).
Chain of FRMPD2_3, Q68DX3 (Q68DX3 1073-1166): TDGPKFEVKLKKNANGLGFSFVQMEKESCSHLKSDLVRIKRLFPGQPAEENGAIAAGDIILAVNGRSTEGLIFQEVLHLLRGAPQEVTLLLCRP
Set-up: key: below the threshold = too weak to quantify, mostly under pKd 3.1 to 4

Row | pKd | Binder
13 | below the threshold | B1
14 | below the threshold | B2
15 | below the threshold | B3
16 | below the threshold | B4

These binders were tested against MAST1, Q9Y2H9 (assay: holdup assay). Conditions: plain residues with an end cap or a label only (N-terminal biotin on a linker: ado-ado).
Chain of MAST1, Q9Y2H9 (Q9Y2H9 962-1065): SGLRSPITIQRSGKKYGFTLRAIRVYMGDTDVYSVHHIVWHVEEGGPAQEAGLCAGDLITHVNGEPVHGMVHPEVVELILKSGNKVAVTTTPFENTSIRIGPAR
Set-up: key: below the threshold = too weak to quantify, mostly under pKd 3.1 to 4

Row | pKd | Binder
17 | 5.08 | B1
18 | 4.64 | B2
19 | 4.86 | B3
20 | 3.9 | B4

The binders below were run against T1, MPDZ_5, O75970 (assay: holdup assay). Conditions: plain residues with an end cap or a label only (N-terminal biotin on a linker: ado-ado).
T1 sequence (O75970 695-796, limits assumed, looked up): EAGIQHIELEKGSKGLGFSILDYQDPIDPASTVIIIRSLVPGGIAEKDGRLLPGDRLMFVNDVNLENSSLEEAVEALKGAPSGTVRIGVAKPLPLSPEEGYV
Set-up: key: below the threshold = too weak to quantify, mostly under pKd 3.1 to 4

Row | pKd | Binder
21 | below the threshold | B1
22 | below the threshold | B2
23 | below the threshold | B3
24 | below the threshold | B4

What follows are binders tested against IL16_1, Q14005 (assay: holdup assay). Conditions: plain residues with an end cap or a label only (N-terminal biotin on a linker: ado-ado).
Chain of IL16_1, Q14005 (Q14005 210-306): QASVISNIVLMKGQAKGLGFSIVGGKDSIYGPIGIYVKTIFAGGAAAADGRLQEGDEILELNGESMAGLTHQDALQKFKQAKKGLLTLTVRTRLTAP
Set-up: key: below the threshold = too weak to quantify, mostly under pKd 3.1 to 4

Row | pKd | Binder
25 | 4.47 | B1
26 | below the threshold | B2
27 | below the threshold | B3
28 | 3.81 | B4

Each binder was assayed against T2, RAPGEF6, Q8TEU7 (assay: holdup assay). Conditions: plain residues with an end cap or a label only (N-terminal biotin on a linker: ado-ado).
T2 sequence (Q8TEU7 525-625, limits assumed, looked up): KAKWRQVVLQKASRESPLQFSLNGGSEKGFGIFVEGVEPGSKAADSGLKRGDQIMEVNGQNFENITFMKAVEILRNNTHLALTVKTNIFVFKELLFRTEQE
Set-up: key: below the threshold = too weak to quantify, mostly under pKd 3.1 to 4

Row | pKd | Binder
29 | below the threshold | B1
30 | below the threshold | B2
31 | 3.48 | B3
32 | below the threshold | B4

Each binder was assayed against PDZRN4_1, Q6ZMN7 (assay: holdup assay). Conditions: plain residues with an end cap or a label only (N-terminal biotin on a linker: ado-ado).
Chain of PDZRN4_1, Q6ZMN7 (Q6ZMN7 213-318): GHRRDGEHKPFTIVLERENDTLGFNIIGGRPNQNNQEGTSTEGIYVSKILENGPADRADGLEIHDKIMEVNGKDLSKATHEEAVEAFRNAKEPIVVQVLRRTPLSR
Set-up: key: below the threshold = too weak to quantify, mostly under pKd 3.1 to 4

Row | pKd | Binder
33 | 5.71 | B1
34 | 4.33 | B2
35 | 3.56 | B3
36 | below the threshold | B4

The binders below were run against MAGI2_3, Q86UL8 (assay: holdup assay). Conditions: plain residues with an end cap or a label only (N-terminal biotin on a linker: ado-ado).
Chain of MAGI2_3, Q86UL8 (Q86UL8 600-682): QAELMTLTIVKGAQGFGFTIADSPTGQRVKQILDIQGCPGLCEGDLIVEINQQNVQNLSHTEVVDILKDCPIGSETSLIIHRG
Set-up: key: below the threshold = too weak to quantify, mostly under pKd 3.1 to 4

Row | pKd | Binder
37 | 3.71 | B1
38 | below the threshold | B2
39 | 3.6 | B3
40 | below the threshold | B4

What follows are binders tested against T3, MPP7, Q5T2T1 (assay: holdup assay). Conditions: plain residues with an end cap or a label only (N-terminal biotin on a linker: ado-ado).
T3 sequence (Q5T2T1 134-230, limits assumed, looked up): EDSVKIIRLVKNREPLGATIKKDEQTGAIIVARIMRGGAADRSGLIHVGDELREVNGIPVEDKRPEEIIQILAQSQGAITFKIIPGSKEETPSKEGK
Set-up: key: below the threshold = too weak to quantify, mostly under pKd 3.1 to 4

Row | pKd | Binder
41 | below the threshold | B1
42 | 3.54 | B2
43 | below the threshold | B3
44 | below the threshold | B4

The binders below were run against DLG4_3, P78352 (assay: holdup assay). Conditions: plain residues with an end cap or a label only (N-terminal biotin on a linker: ado-ado).
Chain of DLG4_3, P78352 (P78352 306-403): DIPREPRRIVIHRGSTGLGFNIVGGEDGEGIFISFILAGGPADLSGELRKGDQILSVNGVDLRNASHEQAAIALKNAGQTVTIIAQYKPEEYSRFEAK
Set-up: key: below the threshold = too weak to quantify, mostly under pKd 3.1 to 4

Row | pKd | Binder
45 | 4.86 | B1
46 | below the threshold | B2
47 | below the threshold | B3
48 | below the threshold | B4

What follows are binders tested against T4, GRIP1_2, Q9Y3R0 (assay: holdup assay). Conditions: plain residues with an end cap or a label only (N-terminal biotin on a linker: ado-ado).
T4 sequence (Q9Y3R0 145-248, limits assumed, looked up): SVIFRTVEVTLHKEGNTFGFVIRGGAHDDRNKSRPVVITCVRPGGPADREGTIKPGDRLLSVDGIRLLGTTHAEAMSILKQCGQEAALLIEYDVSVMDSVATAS
Set-up: key: below the threshold = too weak to quantify, mostly under pKd 3.1 to 4

Row | pKd | Binder
49 | below the threshold | B1
50 | below the threshold | B2
51 | below the threshold | B3
52 | below the threshold | B4

Each binder was assayed against T5, RADIL, Q96JH8 (assay: holdup assay). Conditions: plain residues with an end cap or a label only (N-terminal biotin on a linker: ado-ado).
T5 sequence (Q96JH8 971-1071, limits assumed, looked up): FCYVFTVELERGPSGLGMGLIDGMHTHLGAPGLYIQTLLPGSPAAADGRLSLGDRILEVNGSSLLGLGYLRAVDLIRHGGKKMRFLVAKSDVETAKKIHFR
Set-up: key: below the threshold = too weak to quantify, mostly under pKd 3.1 to 4

Row | pKd | Binder
53 | below the threshold | B1
54 | below the threshold | B2
55 | below the threshold | B3
56 | 4.26 | B4

Each binder was assayed against FRMPD4, Q14CM0 (assay: holdup assay). Conditions: plain residues with an end cap or a label only (N-terminal biotin on a linker: ado-ado).
Chain of FRMPD4, Q14CM0 (Q14CM0 67-160): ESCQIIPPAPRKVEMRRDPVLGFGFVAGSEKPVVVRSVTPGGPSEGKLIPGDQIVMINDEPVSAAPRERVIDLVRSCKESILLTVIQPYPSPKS
Set-up: key: below the threshold = too weak to quantify, mostly under pKd 3.1 to 4

Row | pKd | Binder
57 | 4.35 | B1
58 | below the threshold | B2
59 | below the threshold | B3
60 | below the threshold | B4

The binders below were run against T6, MPP6, Q9NZW5 (assay: holdup assay). Conditions: plain residues with an end cap or a label only (N-terminal biotin on a linker: ado-ado).
T6 sequence (Q9NZW5 125-219, limits assumed, looked up): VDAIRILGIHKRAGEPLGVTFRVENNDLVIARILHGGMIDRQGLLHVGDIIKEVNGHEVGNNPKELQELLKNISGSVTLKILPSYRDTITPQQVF
Set-up: key: below the threshold = too weak to quantify, mostly under pKd 3.1 to 4

Row | pKd | Binder
61 | below the threshold | B1
62 | below the threshold | B2
63 | below the threshold | B3
64 | 3.71 | B4

What follows are binders tested against PTPN3, P26045 (assay: holdup assay). Conditions: plain residues with an end cap or a label only (N-terminal biotin on a linker: ado-ado).
Chain of PTPN3, P26045 (P26045 505-587): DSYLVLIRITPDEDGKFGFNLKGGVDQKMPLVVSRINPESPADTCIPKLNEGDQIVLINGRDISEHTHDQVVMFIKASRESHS
Set-up: key: below the threshold = too weak to quantify, mostly under pKd 3.1 to 4

Row | pKd | Binder
65 | 5.04 | B1
66 | 4.72 | B2
67 | below the threshold | B3
68 | 3.77 | B4

These binders were tested against T7, LRRC7, Q96NW7 (assay: holdup assay). Conditions: plain residues with an end cap or a label only (N-terminal biotin on a linker: ado-ado).
T7 sequence (Q96NW7 1440-1537, limits assumed, looked up): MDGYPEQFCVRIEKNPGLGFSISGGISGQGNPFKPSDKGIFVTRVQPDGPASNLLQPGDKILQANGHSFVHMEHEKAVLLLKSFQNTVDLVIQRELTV
Set-up: key: below the threshold = too weak to quantify, mostly under pKd 3.1 to 4

Row | pKd | Binder
69 | 4.33 | B1
70 | below the threshold | B2
71 | below the threshold | B3
72 | below the threshold | B4

These binders were tested against GIPC2, Q8TF65 (assay: holdup assay). Conditions: plain residues with an end cap or a label only (N-terminal biotin on a linker: ado-ado).
Chain of GIPC2, Q8TF65 (Q8TF65 112-203): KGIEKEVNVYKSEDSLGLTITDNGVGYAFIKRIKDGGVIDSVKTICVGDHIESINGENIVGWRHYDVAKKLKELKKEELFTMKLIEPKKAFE
Set-up: key: below the threshold = too weak to quantify, mostly under pKd 3.1 to 4

Row | pKd | Binder
73 | 4 | B1
74 | 3.52 | B2
75 | below the threshold | B3
76 | below the threshold | B4

The binders below were run against GRIP2_6, Q9C0E4 (assay: holdup assay). Conditions: plain residues with an end cap or a label only (N-terminal biotin on a linker: ado-ado).
Chain of GRIP2_6, Q9C0E4 (Q9C0E4 648-740): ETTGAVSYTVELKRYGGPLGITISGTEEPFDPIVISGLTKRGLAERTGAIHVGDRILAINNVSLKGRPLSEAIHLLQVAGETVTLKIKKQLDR
Set-up: key: below the threshold = too weak to quantify, mostly under pKd 3.1 to 4

Row | pKd | Binder
77 | below the threshold | B1
78 | below the threshold | B2
79 | 3.48 | B3
80 | 4.15 | B4

These binders were tested against MAGI2_5, Q86UL8 (assay: holdup assay). Conditions: plain residues with an end cap or a label only (N-terminal biotin on a linker: ado-ado).
Chain of MAGI2_5, Q86UL8 (Q86UL8 915-1017): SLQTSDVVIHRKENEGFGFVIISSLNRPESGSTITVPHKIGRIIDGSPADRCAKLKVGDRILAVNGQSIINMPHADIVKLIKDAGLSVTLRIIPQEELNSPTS
Set-up: key: below the threshold = too weak to quantify, mostly under pKd 3.1 to 4

Row | pKd | Binder
81 | 3.98 | B1
82 | below the threshold | B2
83 | 3.6 | B3
84 | below the threshold | B4

These binders were tested against T8, DFNB31_2, Q9P202 (assay: holdup assay). Conditions: plain residues with an end cap or a label only (N-terminal biotin on a linker: ado-ado).
T8 sequence (Q9P202 274-371, limits assumed, looked up): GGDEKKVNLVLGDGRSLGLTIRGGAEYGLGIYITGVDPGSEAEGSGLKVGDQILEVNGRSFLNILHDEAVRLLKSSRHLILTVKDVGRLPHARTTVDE
Set-up: key: below the threshold = too weak to quantify, mostly under pKd 3.1 to 4

Row | pKd | Binder
85 | 4.53 | B1
86 | below the threshold | B2
87 | 3.55 | B3
88 | below the threshold | B4

These binders were tested against LDB3, O75112 (assay: holdup assay). Conditions: plain residues with an end cap or a label only (N-terminal biotin on a linker: ado-ado).
Chain of LDB3, O75112 (O75112 1-94): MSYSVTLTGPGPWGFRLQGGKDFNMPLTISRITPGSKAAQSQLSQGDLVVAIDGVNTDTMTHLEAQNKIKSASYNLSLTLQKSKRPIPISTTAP
Set-up: key: below the threshold = too weak to quantify, mostly under pKd 3.1 to 4

Row | pKd | Binder
89 | below the threshold | B1
90 | below the threshold | B2
91 | below the threshold | B3
92 | below the threshold | B4

The binders below were run against CASK, O14936 (assay: holdup assay). Conditions: plain residues with an end cap or a label only (N-terminal biotin on a linker: ado-ado).
Chain of CASK, O14936 (O14936 487-570): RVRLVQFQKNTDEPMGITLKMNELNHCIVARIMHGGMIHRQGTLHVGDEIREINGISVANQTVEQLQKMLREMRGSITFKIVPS
Set-up: key: below the threshold = too weak to quantify, mostly under pKd 3.1 to 4

Row | pKd | Binder
93 | below the threshold | B1
94 | below the threshold | B2
95 | below the threshold | B3
96 | below the threshold | B4

What follows are binders tested against MAGI3_2, Q5TCQ9 (assay: holdup assay). Conditions: plain residues with an end cap or a label only (N-terminal biotin on a linker: ado-ado).
Chain of MAGI3_2, Q5TCQ9 (Q5TCQ9 398-503): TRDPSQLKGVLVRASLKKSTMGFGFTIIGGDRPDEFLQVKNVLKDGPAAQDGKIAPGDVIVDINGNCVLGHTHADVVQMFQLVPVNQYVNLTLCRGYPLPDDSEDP
Set-up: key: below the threshold = too weak to quantify, mostly under pKd 3.1 to 4

Row | pKd | Binder
97 | 4.46 | B1
98 | below the threshold | B2
99 | 3.49 | B3
100 | below the threshold | B4

The binders below were run against T9, MPDZ_10, O75970 (assay: holdup assay). Conditions: plain residues with an end cap or a label only (N-terminal biotin on a linker: ado-ado).
T9 sequence (O75970 1624-1722, limits assumed, looked up): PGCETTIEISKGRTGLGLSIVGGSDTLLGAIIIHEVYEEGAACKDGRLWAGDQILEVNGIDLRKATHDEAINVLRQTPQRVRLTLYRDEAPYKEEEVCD
Set-up: key: below the threshold = too weak to quantify, mostly under pKd 3.1 to 4

Row | pKd | Binder
101 | 3.67 | B1
102 | below the threshold | B2
103 | below the threshold | B3
104 | below the threshold | B4

These binders were tested against NHERF4_1, Q86UT5-2 (assay: holdup assay). Conditions: plain residues with an end cap or a label only (N-terminal biotin on a linker: ado-ado).
Chain of NHERF4_1, Q86UT5-2 (Q86UT5 other isoform, or with tags, fused parts or gaps): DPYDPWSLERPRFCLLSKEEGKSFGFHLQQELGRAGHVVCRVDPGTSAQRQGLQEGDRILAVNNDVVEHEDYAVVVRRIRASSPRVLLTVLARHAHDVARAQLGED
Set-up: key: below the threshold = too weak to quantify, mostly under pKd 3.1 to 4

Row | pKd | Binder
105 | 4.54 | B1
106 | below the threshold | B2
107 | 4.27 | B3
108 | 3.64 | B4

Each binder was assayed against T10, GRIP1_7, Q9Y3R0 (assay: holdup assay). Conditions: plain residues with an end cap or a label only (N-terminal biotin on a linker: ado-ado).
T10 sequence (Q9Y3R0 999-1096, limits assumed, looked up): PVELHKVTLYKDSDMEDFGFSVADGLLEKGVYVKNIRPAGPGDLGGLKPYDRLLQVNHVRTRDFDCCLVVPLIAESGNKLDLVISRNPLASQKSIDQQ
Set-up: key: below the threshold = too weak to quantify, mostly under pKd 3.1 to 4

Row | pKd | Binder
109 | below the threshold | B1
110 | below the threshold | B2
111 | below the threshold | B3
112 | below the threshold | B4
